Source: paper PMC7156742, “RNA-DNA strand exchange by the Drosophila Polycomb complex PRC2”

Columns and labels:
PRC1ΔPh = PRC1ΔPh (UniProt P35820;P26017;Q9VB08 1-1601;1-390;1-435); assay: filter binding; 12 mM Hepes pH 7.9, 0.12 mM EDTA, 120 nM KCl (so in the source); probably mM), 1 mM DTT, 0.01% NP40, 12% glycerol, 0.01 nM probe, 30 min at 30 °C; EMSA plus 50 ng/uL BSA; conditions: protein: recombinant; tags: FLAG; copies: 1;1;1; label: Cy5 or Cy3 on DNA R; 32P at unlabelled 5' ends; blunt
PRC2 = PRC2 (UniProt P42124;Q24338;Q9NJG9;Q24572 1-760;1-425;1-900;1-430); assay: as above; conditions: protein: recombinant; tags: 6xHis-E(Z); FLAG on Esc or Su(Z)12; copies: 1;1;1;1; label: Cy5 or Cy3 on DNA R; 32P at unlabelled 5' ends; blunt

PRC1ΔPh, sequence (P35820 whole entry, stated change not applied, chain 1 of 3): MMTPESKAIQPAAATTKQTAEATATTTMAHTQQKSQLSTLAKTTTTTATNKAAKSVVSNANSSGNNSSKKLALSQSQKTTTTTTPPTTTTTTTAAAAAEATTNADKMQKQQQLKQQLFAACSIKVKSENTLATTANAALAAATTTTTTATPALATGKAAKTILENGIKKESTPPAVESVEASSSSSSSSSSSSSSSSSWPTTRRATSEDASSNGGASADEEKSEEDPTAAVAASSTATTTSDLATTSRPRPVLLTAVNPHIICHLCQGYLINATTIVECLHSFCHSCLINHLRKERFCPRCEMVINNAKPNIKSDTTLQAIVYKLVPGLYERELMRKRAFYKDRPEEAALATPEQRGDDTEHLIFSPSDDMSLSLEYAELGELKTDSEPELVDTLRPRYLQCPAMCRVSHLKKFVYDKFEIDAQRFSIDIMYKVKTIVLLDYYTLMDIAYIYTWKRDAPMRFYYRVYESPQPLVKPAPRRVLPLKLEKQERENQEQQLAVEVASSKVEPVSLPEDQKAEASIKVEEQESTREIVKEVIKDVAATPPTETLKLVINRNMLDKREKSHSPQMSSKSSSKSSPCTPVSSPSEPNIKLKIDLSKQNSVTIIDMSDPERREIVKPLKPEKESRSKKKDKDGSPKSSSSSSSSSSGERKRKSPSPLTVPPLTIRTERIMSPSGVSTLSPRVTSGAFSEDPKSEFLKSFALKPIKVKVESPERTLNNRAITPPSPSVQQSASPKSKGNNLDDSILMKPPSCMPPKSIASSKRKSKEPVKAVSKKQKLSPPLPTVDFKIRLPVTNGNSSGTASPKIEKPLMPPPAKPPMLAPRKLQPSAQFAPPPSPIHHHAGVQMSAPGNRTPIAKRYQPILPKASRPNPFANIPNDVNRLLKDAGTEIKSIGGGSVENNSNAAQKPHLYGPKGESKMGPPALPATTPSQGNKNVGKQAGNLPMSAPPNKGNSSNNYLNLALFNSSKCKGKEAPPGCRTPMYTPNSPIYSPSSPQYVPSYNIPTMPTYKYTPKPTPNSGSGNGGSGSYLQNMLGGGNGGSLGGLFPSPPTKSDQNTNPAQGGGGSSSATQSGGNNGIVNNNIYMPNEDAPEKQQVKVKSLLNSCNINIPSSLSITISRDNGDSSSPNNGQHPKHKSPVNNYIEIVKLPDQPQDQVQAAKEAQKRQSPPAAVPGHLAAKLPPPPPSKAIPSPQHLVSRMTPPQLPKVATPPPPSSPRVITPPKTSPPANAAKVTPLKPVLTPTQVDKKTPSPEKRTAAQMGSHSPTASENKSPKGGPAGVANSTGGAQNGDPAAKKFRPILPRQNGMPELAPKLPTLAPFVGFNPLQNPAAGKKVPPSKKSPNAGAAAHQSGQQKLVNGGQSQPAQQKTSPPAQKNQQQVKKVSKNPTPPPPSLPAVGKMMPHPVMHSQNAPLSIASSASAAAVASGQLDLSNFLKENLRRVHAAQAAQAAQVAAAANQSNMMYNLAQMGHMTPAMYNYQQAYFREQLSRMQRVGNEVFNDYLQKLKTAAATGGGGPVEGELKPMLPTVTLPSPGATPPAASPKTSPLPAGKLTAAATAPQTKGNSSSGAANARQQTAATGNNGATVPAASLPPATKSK
PRC1ΔPh, sequence (P26017 whole entry, stated change not applied, chain 2 of 3): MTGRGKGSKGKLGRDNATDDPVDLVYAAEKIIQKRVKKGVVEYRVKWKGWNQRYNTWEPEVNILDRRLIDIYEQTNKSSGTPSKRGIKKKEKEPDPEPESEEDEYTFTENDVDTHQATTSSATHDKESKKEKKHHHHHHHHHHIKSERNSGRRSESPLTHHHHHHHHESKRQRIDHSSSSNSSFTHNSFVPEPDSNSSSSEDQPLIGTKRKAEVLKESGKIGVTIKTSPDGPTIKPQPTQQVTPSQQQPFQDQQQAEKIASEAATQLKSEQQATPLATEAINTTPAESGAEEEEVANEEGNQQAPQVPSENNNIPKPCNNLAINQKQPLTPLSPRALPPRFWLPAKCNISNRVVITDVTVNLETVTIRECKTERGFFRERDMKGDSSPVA
PRC1ΔPh, sequence (Q9VB08 whole entry, stated change not applied, chain 3 of 3): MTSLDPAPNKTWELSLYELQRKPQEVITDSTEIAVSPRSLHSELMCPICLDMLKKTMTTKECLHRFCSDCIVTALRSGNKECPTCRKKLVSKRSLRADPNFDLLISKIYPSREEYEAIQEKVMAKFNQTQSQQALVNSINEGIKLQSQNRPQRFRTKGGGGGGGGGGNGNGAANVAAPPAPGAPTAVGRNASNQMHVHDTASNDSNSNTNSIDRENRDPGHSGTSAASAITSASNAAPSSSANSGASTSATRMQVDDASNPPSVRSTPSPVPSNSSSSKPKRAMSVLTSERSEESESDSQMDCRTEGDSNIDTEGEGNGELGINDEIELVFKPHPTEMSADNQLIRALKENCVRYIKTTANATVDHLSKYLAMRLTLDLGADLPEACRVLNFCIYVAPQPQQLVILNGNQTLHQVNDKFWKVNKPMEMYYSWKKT

B1: vg PRE dsDNA (dsDNA)
DNA 1: CGGGTTGTCAAGAATTTTAACGGCCATTTCTGTGAGTGTGTGCGAGCTGCCAAGTGTGTGTGAGTGTGTTTGTGACAAACGCAAGCTCATGTAAGTGCTC
DNA 2: GAGCACTTACATGAGCTTGCGTTTGTCACAAACACACTCACACACACTTGGCAGCTCGCACACACTCACAGAAATGGCCGTTAAAATTCTTGACAACCCG
**Q.** Which Kd (PRC1ΔPh) does the source give for B1 here?
**A.** 0.164 nM

**Q.** And the Kd (PRC2)?
**A.** 6.44 nM
